Assay results as given in ChEMBL document CHEMBL3758119, “Functionalized imidazolium and benzimidazolium salts as paraoxonase 1 inhibitors: Synthesis, characterization and molecular docking studies” (Bioorg Med Chem, 2016).

Substrate: CCCCn1cc[n+](Cc2cc(=O)oc3cc(C)cc(C)c23)c1
Conditions: Homo sapiens
Description: Activity of human serum PON1 using paraoxon as substrate by Lineweaver-Burk plot analysis

B1: Serum paraoxonase/arylesterase 1 (Homo sapiens), P27169 (protein)
chain: MAKLIALTLLGMGLALFRNHQSSYQTRLNALREVQPVELPNCNLVKGIETGSEDLEILPNGLAFISSGLKYPGIKSFNPNSPGKILLMDLNEEDPTVLELGITGSKFDVSSFNPHGISTFTDEDNAMYLLVVNHPDAKSTVELFKFQEEEKSLLHLKTIRHKLLPNLNDIVAVGPEHFYGTNDHYFLDPYLQSWEMYLGLAWSYVVYYSPSEVRVVAEGFDFANGINISPDGKYVYIAELLAHKIHVYEKHANWTLTPLKSLDFNTLVDNISVDPETGDLWVGCHPNGMKIFFYDSENPPASEVLRIQNILTEEPKVTQVYAENGTVLQGSTVASVYKGKLLIGTVFHKALYCEL
  Km: 40.6 µM
